Assay results taken from patent publication US20040146507A1 (Genentech, published 2004).
Residue numbers refer to the chain shown, from its start.

T1: rhesus CD11a (rhesus, UniProt H9Z8N3 26-1169)
T1 construct: whole, on cells; On rhesus peripheral blood lymphocytes or leukocytes; also called rhCD11a
T1 sequence: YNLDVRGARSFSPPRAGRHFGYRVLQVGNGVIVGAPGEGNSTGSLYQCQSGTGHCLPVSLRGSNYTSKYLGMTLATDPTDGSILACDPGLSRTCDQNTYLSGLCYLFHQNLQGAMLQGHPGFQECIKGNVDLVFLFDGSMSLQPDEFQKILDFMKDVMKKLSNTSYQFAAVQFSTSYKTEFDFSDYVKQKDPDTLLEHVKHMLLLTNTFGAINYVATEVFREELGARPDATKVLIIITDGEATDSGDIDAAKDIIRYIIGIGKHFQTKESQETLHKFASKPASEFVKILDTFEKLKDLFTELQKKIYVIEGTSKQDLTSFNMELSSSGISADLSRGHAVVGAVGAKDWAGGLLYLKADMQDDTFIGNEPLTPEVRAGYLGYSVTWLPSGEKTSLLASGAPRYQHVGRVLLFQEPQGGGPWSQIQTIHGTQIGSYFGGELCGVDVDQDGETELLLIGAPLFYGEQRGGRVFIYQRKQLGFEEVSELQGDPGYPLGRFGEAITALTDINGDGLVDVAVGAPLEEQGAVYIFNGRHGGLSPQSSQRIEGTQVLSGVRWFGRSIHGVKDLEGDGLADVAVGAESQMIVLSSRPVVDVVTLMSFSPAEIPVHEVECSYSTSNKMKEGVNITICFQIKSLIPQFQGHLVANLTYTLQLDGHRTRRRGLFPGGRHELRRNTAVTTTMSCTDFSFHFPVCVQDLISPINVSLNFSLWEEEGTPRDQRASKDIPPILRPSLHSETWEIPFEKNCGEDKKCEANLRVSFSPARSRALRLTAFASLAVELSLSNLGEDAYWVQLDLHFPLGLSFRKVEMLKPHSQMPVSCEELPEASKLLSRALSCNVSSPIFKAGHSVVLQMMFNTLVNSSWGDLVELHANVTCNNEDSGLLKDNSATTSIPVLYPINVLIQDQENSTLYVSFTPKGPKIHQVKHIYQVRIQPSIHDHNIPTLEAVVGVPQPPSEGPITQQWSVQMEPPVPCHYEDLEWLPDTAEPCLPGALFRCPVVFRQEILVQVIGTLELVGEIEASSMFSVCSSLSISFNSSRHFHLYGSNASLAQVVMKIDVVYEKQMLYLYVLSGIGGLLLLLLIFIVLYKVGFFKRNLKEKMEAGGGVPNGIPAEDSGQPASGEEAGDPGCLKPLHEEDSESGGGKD

B1: HuIgG1 mutant AsnL92Ala (antibody, V domains shown)
VH: EVQLVESGGGLVQPGGSLRLSCAASGYSFTGHWMNWVRQAPGKGLEWVGMIHPSDSETRYNQKFKDRFTISVDKSKNTLYLQMNSLRAEDTAVYYCARGIYFYGTTYFDYWGQGTLVTVSS
VL: DIQMTQSPSSLSASVGDRVTITCRASKTISKYLAWYQQKPGKAPKLLIYSGSTLQSGVPSRFSGSGSGTDFTLTISSLQPEDFATYYCQQHAEYPLTFGQGTKVEIKR
notes: HuIgG1 mutant, human IgG1; Kabat numbering
B2: HuIgG1 mutant H2A2 (antibody, V domains shown)
VH: B1 VH with S54A, S56A
VL: DIQMTQSPSSLSASVGDRVTITCRASKTISKYLAWYQQKPGKAPKLLIYSGSTLQSGVPSRFSGSGSGTDFTLTISSLQPEDFATYYCQQHNEYPLTFGQGTKVEIK
notes: as for B1
B3: HuIgG1 mutant GluL93Ala (antibody, V domains shown)
VH: B1 VH
VL: B1 VL with A92N, E93A
notes: as for B1
B4: HuIgG1 mutant ArgH58Ala (antibody, V domains shown)
VH: B1 VH with R59A
VL: B2 VL
notes: as for B1
B5: HuIgG1 mutant H2A3 (antibody, V domains shown)
VH: B1 VH with H52A, S56A
VL: B2 VL
notes: as for B1
B6: HuIgG1 mutant GlyH31Ala (antibody, V domains shown)
VH: B1 VH with G31A
VL: B2 VL
notes: as for B1
B7: HuIgG1 mutant SerL50Ala (antibody, V domains shown)
VH: B1 VH
VL: B1 VL with S50A, A92N
notes: as for B1
B8: HuIgG1 mutant ThrL53Ala (antibody, V domains shown)
VH: B1 VH
VL: B1 VL with T53A, A92N
notes: as for B1
B9: HuIgG1 mutant HisH52Ala (antibody, V domains shown)
VH: B1 VH with H52A
VL: B2 VL
notes: as for B1
B10: HuIgG1 mutant AspH65Ala (antibody, V domains shown)
VH: B1 VH with D66A
VL: B2 VL
notes: as for B1
B11: HuIgG1 mutant LysH64Ala (antibody, V domains shown)
VH: B1 VH with K65A
VL: B2 VL
notes: as for B1
B12: HuIgG1 mutant GlnH61Ala (antibody, V domains shown)
VH: B1 VH with Q62A
VL: B2 VL
notes: as for B1
B13: HuIgG1 mutant L1 (antibody, V domains shown)
VH: B1 VH
VL: B1 VL with K27A, T28A, S30A, K31A, A92N
notes: as for B1
B14: HuIgG1 mutant LysH62Ala (antibody, V domains shown)
VH: B1 VH with K63A
VL: B2 VL
notes: as for B1
B15: HuIgG1 mutant HisH32Ala (antibody, V domains shown)
VH: B1 VH with H32A
VL: B2 VL
notes: as for B1
B16: HuIgG1 mutant H1 (antibody, V domains shown)
VH: B1 VH with S28A, T30A, H32A
VL: B2 VL
notes: as for B1
B17: HuIgG1 mutant TyrH100cAla (antibody, V domains shown)
VH: B1 VH with Y107A
VL: B2 VL
notes: as for B1
B18: HuIgG1 mutant TyrH99Ala (antibody, V domains shown)
VH: B1 VH with Y103A
VL: B2 VL
notes: as for B1
B19: HuIgG1 mutant H3B (antibody, V domains shown)
VH: B1 VH with T105A, T106A, Y107A
VL: B2 VL
notes: as for B1
B20: HuIgG1 mutant ThrH100bAla (antibody, V domains shown)
VH: B1 VH with T106A
VL: B2 VL
notes: as for B1
B21: HuIgG1 mutant HisH52Ser (antibody, V domains shown)
VH: B1 VH with H52S
VL: B2 VL
notes: as for B1
B22: HuIgG1 mutant TyrL94Ala (antibody, V domains shown)
VH: B1 VH
VL: B1 VL with A92N, Y94A
notes: as for B1
B23: HuIgG1 mutant ThrH100aAla (antibody, V domains shown)
VH: B1 VH with T105A
VL: B2 VL
notes: as for B1
B24: HuIgG1 mutant SerH55Asn (antibody, V domains shown)
VH: B1 VH with S56N
VL: B2 VL
notes: as for B1
B25: HuIgG1 mutant TyrH97Ala (antibody, V domains shown)
VH: B1 VH with Y101A
VL: B2 VL
notes: as for B1
B26: HuIgG1 mutant SerL52Ala (antibody, V domains shown)
VH: B1 VH
VL: B1 VL with S52A, A92N
notes: as for B1
B27: HuIgG1 mutant LysH73Ala (antibody, V domains shown)
VH: B1 VH with K74A
VL: B2 VL
notes: as for B1
B28: HuIgG1 mutant L2 (antibody, V domains shown)
VH: B1 VH
VL: B1 VL with S50A, S52A, T53A, A92N
notes: as for B1
B29: HuIgG1 mutant SerH28Ala (antibody, V domains shown)
VH: B1 VH with S28A
VL: B2 VL
notes: as for B1

What follows are binders tested against T1, rhesus CD11a (assay: rhesus PBL binding).

Row | Binder | Var.EC50/HuIgG1 EC50 [ratio]
1 | B1 | 3.3
2 | B2 | 1.1
3 | B3 | 2.9
4 | B4 | 3.3
5 | B5 | 1.3
6 | B6 | 2.4
7 | B7 | 2.7
8 | B8 | 0.7
9 | B9 | 0.7
10 | B10 | 1.1
11 | B11 | 1.2
12 | B12 | 5.3
13 | B13 | 1
14 | B14 | 4.9

What follows are binders tested against T2, human CD11a (human, UniProt P20701 26-1170) (assay: FACScan, Jurkat cells).
T2 construct: whole, on cells; On Jurkat T-cells or human peripheral blood mononuclear cells, as part of LFA-1; also called CD11a on Jurkat cells; alpha subunit of LFA-1
Experimental: Aliquots of 10⁶ Jurkat T-cells were incubated with serial dilutions of humanized and control antibodies in PBS-0.1% BSA-10 mM sodium azide for 45 min at 4° C. The cells were washed and then incubated in fluorescein-conjugated goat anti-human F(ab′)₂ (Organon Teknika, Westchester, Pa.) for 45 min at 4° C. Cells were washed and analysed on a FACScan (Becton Dickinson, Mountain View, Calif.). 8×10³ cells were acquired by list mode and gated by forward light scatter versus side light scatter, thereby excluding dead cells and debris.
To determine which CDR residues were involved in binding to human CD11a an alanine-scan (Cunningham et al., Science 244:1081 (1989)) was performed on the CDR residues of HuIgG1. Each mutant was tested for binding to CD11a on Jurkat cells. In the light chain only CDR-L3 contributes to binding.

Row | Binder | Var.EC50/HuIgG1 EC50 [ratio]
15 | B1 | 3.3
16 | B15 | 2.3
17 | B16 | 5.9
18 | B2 | 1.9
19 | B17 | 7.6
20 | B18 | 1.4
21 | B3 | 1.7
22 | B19 | 34.7
23 | B20 | 1.4
24 | B21 | 5
25 | B4 | 1.1
26 | B22 | 11.8
27 | B23 | 2.3
28 | B24 | 2.1
29 | B25 | 10.9
30 | B5 | 4.6
31 | B6 | 1.2
32 | B26 | 1.1
33 | B27 | 5.2
34 | B7 | 1.2
35 | B28 | 1.1
36 | B8 | 0.9
37 | B9 | 1.5
38 | B10 | 0.8
39 | B11 | 2.5
40 | B29 | 6.9
41 | B12 | 4.1
42 | B13 | 1.3
43 | B14 | 1.8
